Data: paper PMC5304152
Values joined by “and” are separate entries in the source; they are usually repeats but may differ in a detail not shown here. Equal values may be shown once.

Molecular target: barfin plaice type I antifreeze protein, 40-residue major isoform (bpAFP) (barfin plaice (Liposetta pinnifasciata))
Experiment: AUC; sedimentation velocity, 40,000 rpm, 4 °C, 2.5 mg bpAFP in 0.5 mL (5 mg/mL) 10 mM sodium phosphate pH 7.9, absorbance optics; monomer to tetramer (and octamer)

percent of loaded protein sedimenting as tetramer: 2.7%
stoichiometry N: 4 and 8
Substance: barfin plaice type I antifreeze protein, 40-residue major isoform (bpAFP) (peptide)
